Experimental data from patent US11434267B2, “Peptides having reduced toxicity that stimulate cholesterol efflux” (The Regents of the University of California, priority 2013, dated 2022).
Positions of bridges follow the written chain, without caps; N, C: chain ends. Non-standard residues stand in square brackets, D forms with d. No end group written: not given here. R8 = C=CCCCCCC[C@@](C)(N)C(=O)O; Cit = NC(=O)NCCC[C@H](N)C(=O)O; S5 = C=CCCC[C@](C)(N)C(=O)O

Assays:
[1] = scaled values = (raw log(P) + 2.061)/4.484; cited from earlier work
[2] = molecular target: T1, ABCA1 (Mus musculus, UniProt P41233); experiment: ABCA1-dependent cholesterol efflux from [3H]cholesterol-labeled J774 macrophages with and without cAMP; assay type: cell-based; conditions: J774, cAMP vs no cAMP; 10 μg/ml lipid-free
T1 construct: treated (18 h) with a cAMP analog to induce ABCA1 protein expression; endogenous in cells; host or cells: J774 macrophages
T1 sequence (P41233 whole entry): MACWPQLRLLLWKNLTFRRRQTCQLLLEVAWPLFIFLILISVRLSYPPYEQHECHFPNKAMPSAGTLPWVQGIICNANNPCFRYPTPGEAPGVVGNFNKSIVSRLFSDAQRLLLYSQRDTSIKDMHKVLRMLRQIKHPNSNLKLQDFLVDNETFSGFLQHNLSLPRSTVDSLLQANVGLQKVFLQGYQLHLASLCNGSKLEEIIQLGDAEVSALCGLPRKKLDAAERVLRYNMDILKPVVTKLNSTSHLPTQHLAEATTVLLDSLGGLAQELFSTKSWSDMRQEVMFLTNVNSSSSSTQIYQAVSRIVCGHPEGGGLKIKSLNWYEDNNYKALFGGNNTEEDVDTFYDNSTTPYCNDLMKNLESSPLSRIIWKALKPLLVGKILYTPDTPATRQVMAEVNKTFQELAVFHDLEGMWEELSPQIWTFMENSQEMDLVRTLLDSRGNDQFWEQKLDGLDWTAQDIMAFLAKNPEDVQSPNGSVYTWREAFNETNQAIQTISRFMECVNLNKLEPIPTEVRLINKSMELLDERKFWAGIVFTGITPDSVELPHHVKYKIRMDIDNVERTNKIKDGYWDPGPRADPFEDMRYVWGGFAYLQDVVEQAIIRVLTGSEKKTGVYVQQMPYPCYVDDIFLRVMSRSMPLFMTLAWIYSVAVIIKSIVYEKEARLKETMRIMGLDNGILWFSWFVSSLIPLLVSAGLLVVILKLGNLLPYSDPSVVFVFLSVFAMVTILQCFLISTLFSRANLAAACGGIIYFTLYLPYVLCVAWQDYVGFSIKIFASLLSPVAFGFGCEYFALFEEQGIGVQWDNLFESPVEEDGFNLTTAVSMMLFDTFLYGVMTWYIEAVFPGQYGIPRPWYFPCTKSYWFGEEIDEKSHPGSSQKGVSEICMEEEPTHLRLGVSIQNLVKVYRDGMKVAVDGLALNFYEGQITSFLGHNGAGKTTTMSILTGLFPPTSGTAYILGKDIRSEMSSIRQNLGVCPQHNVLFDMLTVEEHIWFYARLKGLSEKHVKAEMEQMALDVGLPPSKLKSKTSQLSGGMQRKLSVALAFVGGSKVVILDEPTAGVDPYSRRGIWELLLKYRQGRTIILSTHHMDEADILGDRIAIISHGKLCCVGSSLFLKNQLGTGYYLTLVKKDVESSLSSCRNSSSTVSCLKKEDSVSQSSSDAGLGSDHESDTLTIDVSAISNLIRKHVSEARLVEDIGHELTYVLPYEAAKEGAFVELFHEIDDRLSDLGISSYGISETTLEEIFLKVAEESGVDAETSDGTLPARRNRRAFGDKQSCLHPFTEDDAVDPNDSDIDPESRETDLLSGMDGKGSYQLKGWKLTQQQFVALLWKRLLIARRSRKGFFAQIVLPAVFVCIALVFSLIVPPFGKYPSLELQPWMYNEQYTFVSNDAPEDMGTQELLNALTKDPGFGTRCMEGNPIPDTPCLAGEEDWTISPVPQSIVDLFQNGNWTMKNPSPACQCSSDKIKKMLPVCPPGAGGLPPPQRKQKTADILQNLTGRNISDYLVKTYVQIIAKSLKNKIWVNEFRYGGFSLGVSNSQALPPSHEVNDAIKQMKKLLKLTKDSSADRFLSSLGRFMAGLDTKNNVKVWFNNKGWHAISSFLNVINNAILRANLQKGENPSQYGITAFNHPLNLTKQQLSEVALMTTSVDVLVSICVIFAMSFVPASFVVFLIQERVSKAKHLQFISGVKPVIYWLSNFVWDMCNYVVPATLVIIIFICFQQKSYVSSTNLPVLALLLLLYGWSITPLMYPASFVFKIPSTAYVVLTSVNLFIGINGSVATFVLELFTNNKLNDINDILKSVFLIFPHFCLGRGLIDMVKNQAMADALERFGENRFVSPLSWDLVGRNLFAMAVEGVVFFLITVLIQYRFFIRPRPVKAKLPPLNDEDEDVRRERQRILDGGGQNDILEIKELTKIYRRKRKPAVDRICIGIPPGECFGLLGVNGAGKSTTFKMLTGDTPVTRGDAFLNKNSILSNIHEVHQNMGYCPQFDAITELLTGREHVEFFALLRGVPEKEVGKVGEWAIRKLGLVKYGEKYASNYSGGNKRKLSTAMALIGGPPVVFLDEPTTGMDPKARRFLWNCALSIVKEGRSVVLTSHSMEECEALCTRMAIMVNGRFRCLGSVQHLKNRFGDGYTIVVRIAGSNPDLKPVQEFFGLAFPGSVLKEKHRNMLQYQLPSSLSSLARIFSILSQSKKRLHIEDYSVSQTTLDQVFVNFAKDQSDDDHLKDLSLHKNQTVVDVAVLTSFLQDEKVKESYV

[3] = tested on: C57Bl/6 mice; assay type: in vivo; conditions: 300 mg/kg IP, male chow-fed C57Bl/6 mice
Description: The high-dose cytotoxic response of ATI-5261 observed in rat, rabbit and cynomolgus monkey is additionally recapitulated in mice (FIG. 4). Male chow-fed C57bl/6 mice were injected intraperitonelly (IP) with 30 or 300 mg/kg of lipid-fee ATI-5261. Blood was collected via the retro-orbital plexus 4 h after peptide injection and plasma subsequently obtained for measurement of CPK (Panel A) and ALT and AST activities (Panel B, ALT left bars, AST, right bars). Values are means±SD, n=4 mice per group.
This example illustrates that aromatic phenylalanine residues associated with the non-polar surface of ATI-5261 contributed to the majority of the peptide toxicity (FIG. 5). […] Blood was collected via retro-orbital plexus 4 h after injection for isolation of plasma. Levels of plasma CPK (Panel A), ALT (panel B) and AST (Panel C) were determined as described in FIG. 1. Values are means±SD, n=4 mice per group.
The concentrations of plasma lipids in C57Bl/6 mice following administration of the aliphatic analogs of ATI-5261 was also determined. […] All values (mg/dl) are means±SD, n=4, determined at 4 and 6 h post treatment with peptide.

[4] = molecular target: T1, ABCA1; experiment: ABCA1-dependent cholesterol efflux from [3H]cholesterol-labeled J774 macrophages with and without cAMP; assay type: cell-based; conditions: cAMP treated J774, dose response, 4 h
Excerpt: Suitable cholesterol efflux assays are described in, e.g., Bielicki, J. K and Oda, M. N., Biochemistry, 41:2089-2096 (2002); Jia et al., Biochem. Biophys. Res. Common., 297:206-213 (2002). In some embodiments, a polypeptide known to mediate cholesterol efflux (e.g., helix 9/10 of Apo A-I) is used to screen for additional mediators of cholesterol efflux in a cell based assay. For example, cell lines in which cholesterol efflux can be enhanced using a cAMP analog that up-regulates ABCA1 protein expression (e.g., J774 macrophages) can conveniently be used to assess the ability of a polypeptide of the present invention to mediate cholesterol efflux. The cells are incubated with labeled cholesterol (e.g., [^3H]cholesterol) under conditions appropriate for cholesterol uptake by the cells. Thus, cAMP or cAMP analogs (e.g., CPT-cAMP) are incubated with the cells for a suitable time before the initiation of cellular cholesterol efflux, i.e., prior to contacting the cells with a test polypeptide. Measurement of labeled cholesterol appearing in the medium is used to determine the cholesterol efflux mediating activity of the test polypeptide.
Aliphatic analogs of ATI-5261 lacking phenylalanine residues retained potent ABCA1 selective cholesterol efflux activity (FIG. 7). J774 macrophages were labeled (48 h) with [^3H]cholesterol and treated (18 h) with a cAMP analog to induce ABCA1 protein expression; cells incubated in the absence of cAMP (left bars) served as controls. […] Peptides were used at a concentration of 30 μg/ml, which was maximal for promoting cholesterol efflux activity. Panel B—Dependence of cholesterol efflux on the concentration of peptides. […] Results are expressed as the difference in cholesterol efflux (%/4 h) observed using cAMP treated vs. non-treated J774 cells. Values are means±SD, n=3.

Compound	Hydrophobicity [1]	ABCA1-dependent cholesterol efflux activity [2]	peptide concentration at saturation of cholesterol efflux [4] [µg/mL]	also measured
N[C@@H](Cc1c[nH]c2ccccc12)C(=O)O [Tryptophan]	0.878	–	–	–
N[C@@H](Cc1ccc(O)cc1)C(=O)O [Tyrosine]	0.880	–	–	–
CC(C)[C@H](N)C(=O)O [Valine]	0.825	–	–	–
CS6256A: ATI-5261 with glutamine at positions 3 and 23 and a chemical staple (EVQSKLEEWFAAF[S5]EFAEEF[R8]AQLKS; staple 14-21)	–	highly dependent on ABCA1 comparable to ATI-5261	–	–
CS6257: ATI-5261 with uncharged alanine at positions 3 and 23 and a chemical staple (EVASKLEEWFAAF[S5]EFAEEF[R8]AALKS; staple 14-21)	–	highly dependent on ABCA1 comparable to ATI-5261	–	–
CS6259: leucine form of ATI-5261 with glutamine at positions 3 and 23 and a chemical staple (EVQSKLEEWLAAL[R8]ELAEEL[S5]AQLKS; staple 14-21)	–	highly dependent on ABCA1 comparable to ATI-5261	–	–
T5505-9: ATI-5261 analog with L24A; W9L substitutions (EVRSKLEELLAALRELAEELLARAKS; synthetic amphipathic alpha-helix cholesterol efflux peptide T5505-9, LeuATI-5261 analog)	–	–	~3	TG elevating effect (plasma TG, cholesterol) ([3]; 4 and 6 h): markedly reduced the increase in plasma CPK and AST as well as TG elevating activity; muscle toxicity (plasma CPK activity) ([3]; 4 h): markedly reduced the increase in plasma CPK and AST as well as TG elevating activity; plasma ALT / AST ([3]; 4 h): markedly reduced the increase in plasma CPK and AST as well as TG elevating activity; Km for cholesterol efflux [4]: 0.58 µg/mL
T6275-5: citrulline form of LeuATI-5261 with single citrulline14→L substitution (EV[Cit]SKLEEWLAALLELAEELLARLKS) [Peptide T6275-5]	–	–	3	–
T7983-11: Y26 analog of T6991-2 (S26→Y for 125I labeling) (EV[Cit]SKLEEWIAAI[Cit]EIAEEILARLKY) [Peptide T7983-11]	–	functional, mediating high-levels of cholesterol efflux in an ABCA1-dependent manner	3	–
